Measured values: the DeepSol protein solubility set

Experiment: soluble on expression in E. coli; label from the status in PepcDB or PDB records

Sequence	soluble on expression in E. coli
MACPEATFFHRAGWKQVIEQAFGHKTWFLYIEEGGCIQGVLPLAEIDSLLFGHSLSALPFCVYGGIAAISDDARIRLDQAAQMLATYLKVDYLEYRHLHPFHHDWPTKDLYVTFRKTMDSDVEQNMLAIPRKQRAMVRKGMKYELQSYLDQDTDHFFRAYSASVHRLGTPVFSRKYFRLLKSVFAEDCELLIITKDENVVSAVMSFYFRDEVLPYYGGGTDAARDLAGNDFMYWELMRRACERGYRVFDFGRSKRGTGSYSFKKNWGFEPQPLFYEYQLHQAKTIPEHNPLNPKYQLFIKAWQKMPLALANMLGPHIVKNLG	not soluble
MADADLVMTGTVLTVDDARPTAEAIAVADGRVIAVGDRSEVAGLVGANTRVIDLGAGCVMPGFVEAHGHPLLEAVVLSDRFVDIRPVTMRDADDVVAAIRGEVARRGPAGAYLVGWDPLLQSGLGEPTLTWLDSLAPNGPLVIIHNSGHKAYFNSHAAWLNGLTRDTADPKGAKYGRDGNGELDGTAEEIGAILPLLAGVADPSNFGAMLRAECARLNRAGLTTCSEMAFDPGYRPMVEAVRAELTVRLCTYEISNARMCTDATPGQGDDMLRQVGIKIWVDGSPWVGNIDLTFPYLDTPATRAIGVPPGSRGCANYTREQLAEIVGAYFPRGWQIACHVHGDGGVDTILDVYEEALRRNPRDDHRLRLEHVGAIRPDQLRRAAELGVTCSIFVDQIHYWGDVIVDDLFGAQRGSRWMPAGSAVAAGMRISLHNDPPVTPEEPLRNISVAATRVAPSGRVLAPEERLTVEQAIRAQTIDAAWQLFAEDAIGSLQVGKYADMVVLSADPRTVPPEQIADLAVRATFLAGRQVYRRLEHHHHHH	not soluble
MADDGPIIEEIAEKNGRVARIMQRLQHDTQRVTSVPGFNTSATGYADLIALLDQYKNDLEAVGFNDLEQARRRAPSVDITVGSNSTNLVDYSHGRHDMPSHRRHDSSDEEITAANSHHQSPINVGNRNDTDGTNGRNGSRAGSSSSDRVRMIAGRNRISKTRRYRPGQKALEEIRKYQESEDLLIPKAPFARLVREIMQTSTPFSSDLRIRSDAINALQEASEALLVQMFDGSSLISAHSKRATLTTTDVQLYRRLCLPNL	not soluble
MADHAHNLRATFGHGRPIGVITRGTTGFNRLRRCDRWMAHHPLIQQALRRTSDPIALDVGYGASFTTTVEWARWLRTMRDDVRVTGLEIDPERVLPPRDGVTFELGGFELAGYQPTLVRAFNVLRQYDVDQVMDAWEMVTSRLQPGGFFVEGTCDELGRRSTWVLLNHAGPQSLTLCWDPFDVERPSDIAERLPKILIHRNVAGEKIHDVLLRTDEAWDRCAPWASYGPRVRWRAARAMLMDMGIPMSIIRRPVRDNQLTVPWSIVDPTT	not soluble
MADIGSTYNGPLSSHWFPEELAQWEPDSDPDAPFNRSHVPLEPGRVADRVNANADTDAHLVSLSALNRHTSGVPSQGAPVFYENTFSYWHYTDLMVYWAGSAGEGIIVPPSADVIDASHRNGVPILGNVFFPPTVYGGQLEWLEQMLEQEEDGSFPLADKLLEVADYYGFDGWFINQQTEGADEGTAEAMQAFLVYLQEQKPEGMHIMWYDSMIDTGAIAWQNHLTDRNKMYLQNGSTRVADSMFLNFWWRDQRQSNELAQALGRSPYDLYAGVDVEARGTSTPVQWEGLFPEGEKAHTSLGLYRPDWAFQSSETMEAFYEKELQFWVGSTGNPAETDGQSNWPGMAHWFPAKSTATSVPFVTHFNTGSGAQFSAEGKTVSEQEWNNRSLQDVLPTWRWIQHGGDLEATFSWEEAFEGGSSLQWHGSLAEGEHAQIELYQTELPISEGTSLTWTFKSEHGNDLNVGFRLDGEEDFRYVEGEQRESINGWTQWTLPLDAFAGQTITGLAFAAEGNETGLAEFYIGQLAVGADSEKPAAPNVNVRQYDPDPSGIQLVWEKQSNVHHYRVYKETKHGKELIGTSAGDRIYLEGLVEESKQNDVRLHIEALSETFVPSDARMIDIKSGSF	soluble
MADPWLSIIGLGEDGPAGLPDASRAALEAAEVVVGGPRHLALVDARARGMEWPVPFDPAPVLALRGRPVAVLASGDPFWHGAGGSLAAALSPGEWRAYPAPGVVALAAARLGWRQEELLALGLHAAPFERLLPELAPGRRGVCTLRDGPAAGALAAFLAAEGWGESRLWVMEALGGPRERVRATTAGAFSLTDVAAPVTVAFEAEGGRAQPRSAGLPDSLFAHDGQITKAPVRALTLAALAPRRGEILWDLGAGSGSVSVEWCLAGGRAVAVELRPERAANIRANAARFALPLEVVEGRALDNLPALPAPDAIFVGGGFDEALFAALPPTARLVVNAVTLETEALLAALQARHGGELLRIELARAAPLGRMRGWEAARPVVQWSLVR	not soluble
MADQEHIDAGLLSTNFDMIQALPLNVKQRVCALKNLQMKTIQIESDFYKRVHELEIEFEGKFKSTFDQRKAIVAGEVEPTKEQIDTPILEGLEGDQLAELYKAAEADPSAKGIKDFWLTALRTHDLVAEAIEEHDVPILSYLTDVTTAASKDPAGFKIEFHFATNPYFKNQVLTKTYLLGFDPDAEAPLQFDGPHVIRAVGDTIEWEDGKNVTKKAVKKKQKKGANAGKFLTKTVKADSFFNFFEPPKSKDERNEDEDDEQAEEFLELDYEMGQAIRDTIIPRAVLFYTGELQSDDMFDFPGEDGDDVSDFSDDEA	soluble
MADRDATLWASHEKMLSQPLKDSDAEVYSIIKKESNRQRVGLELIASENFASRAVLEALGSSLNNKYSEGYPGQRYYGGTEFIDELEMLCQKRALQAYHLDPQCWGVNVQPYSGSPANFAVYTALVEPHGRIMGLDLPDGGHLTHGFMTDKKKISATSIFFESMPYKVYPETGYINYDQLEENASLFHPKLIIAGTSCYSRNLDYARLRKIADDNGAYLMADMAHISGLVAAGVVPSPFEHCHVVTTTTHKTLRGCRAGMIFYRKGVRSVDPKTGKETYYELESLINSAVFPGLQGGPHNHAIAGVAVALKQAMTTEFKIYQLQVLANCRALSDALTELGYKIVTGGSDNHLILMDLRSKGTDGGRAEKVLEACSIACNKNTCPGDKSALRPSGLRLGTPALTSRGLLEEDFQKVAHFIHRGIELTLQIQSHMATKATLKEFKEKLAGDEKIQSAVATLREEVENFASNFSLPGLPDF	soluble
MADSAELKQMVMSLRVSELQVLLGYAGRNKHGRKHELLTKALHLLKAGCSPAVQMKIKELYRRRF	soluble
MADVTGIALGMIETRGLVPAIEAADAMTKAAEVRLVGRQFVGGGYVTVLVRGETGAVNAAVRAGADACERVGDGLVAAHIIARVHSEVENILPKAPQA	soluble
MADYKVKDISLAEWGRKAIELAENEMPGLMELRREYGPSQPLKGAKIAGCLHMTVQTAVLIETLKALGAELRWSSCNIFSTQDNAAAAIAKTGVPVFAWKGETDEEYEWCIAQTVKGFSGDGLPNMILDDGGDLTNLVIDRYPELVPKIFGISEETTTGVKNLYKRLSKGNLPISAINVNDSVTKSKFDNLYGCRESLVDGIKRATDVMIAGKTCCVCGYGDVGKGCAAALRAFGARVVVTEVDPINALQASMEGYQVALVEDVMADAHIFVTTTGNDDIITSDHFPHMRDDAIVCNIGHFDTEIQVGWLEANAKEHVEIKPQVDRYTMENGRHIILLAKGRLVNLGCASGHPSFVMSNSFTNQVLAQIELWSNRDNGKYPRGDKAGVFFLPKALDEKVAALHLAHVGAKLTKLTPKQAEYINCPVNGPFKPDHYRY	soluble
MAEEHHHHHHHHLEVLFQGPGRPKTHTVGSVAKVEQVKFDATSMHVKPQVAAQQKMVDDGSGEVQVWRIENLELVPVDSKWLGHFYGGDCYLLLYTYLIGEKQHYLLYVWQGSQASQDEITASAYQAVILDQKYNGEPVQIRVPMGKEPPHLMSIFKGRMVVYQGGTSRTNNLETGPSTRLFQVQGTGANNTKAFEVPARANFLNSNDVFVLKTQSCCYLWCGKGCSGDEREMAKMVADTISRTEKQVVVEGQEPANFWMALGGKAPYANTKRLQEENLVITPRLFECSNKTGRFLATEIPDFNQDDLEEDDVFLLDVWDQVFFWIGKHANEEEKKAAATTAQEYLKTHPSGRDPETPIIVVKQGHEPPTFTGWFLAWDPFKWSGIHVVPNLSPLSNN	soluble
MAEERGRPQYRPNCNGLSSYYRERFGSHSPEVYLNLRISGFDDRLEREQIKQYLTQELKKYAPFEIKVVKNPEEDERLAYVNFERNDCARKVRYTLMDRLKSVLGKRVQCDPAGILRDQEGKYIPDRFNRAQHGADSKREGGSGSGNRGRPTKEPSTWRLKQDDDEATRTLFVGNMPSDVKEREIRHVFEEHGKVEEVDIKTPINTDAAYAFVMFQTVDQAIQAKAEEQDRPIRAGGSRMKIGYGKSQVSRRLFVGGLGSWCDKEILQKAFGEFGFVENIDYDHGQPYAYVVYENTHTSQEACRSLRGACISKGNHPIMVDYAKDLTAQPEKQQFMRKRRASKSPVGASAVRTPPGSPKDVVRNFAELEEAYAATWSGKMALKKTDYPVKFYRVYGAERLPVKLLRDEDDVPLRLLITQRLSLSSQNLLFDKLASCSSKELSLGVITGKKELSDLQPLVNYFTNKEAAGVVTVPGGILYIFPFCEFALKLLAEFTPQVNVFNENCPFLLGALAVRAPGTP	not soluble
MAEGERLYLCGEFTKAIQSFTNALHLQSGDKNCLVARSKCYLKMGDLEKSLNDAEASLRNDPTFCKGILQKAETLYTMGDFEFALVFYHRGYKLRPDREFKVGIQKAQEAINNSVGSPSSIKLENKGDLSFLSKQAESKKAQQKHLPIKQLSYSTKHEIKRKGSLKSEKTVRQLLGELYVDKEYLEKLLLDEDLIKGTIKSGLTVEDLIMTGINYLDTRSNFWRQQKPIYARERDRKLMQEKWLRDRKRSPSQTAHYILKSLEDIDMLLTSGSADGSLQKAEKVLKKVLEWNQEEVPNKDELVGNLYSCIGNAQIELGQMVAALQSHRKDLEIAKEHDLPDAKSRALDNIGRVFARVGKFQQAIDVGGEDPSSQNHPGEDLALPRDWPLLLGAGPGVAGPELWGKVSAVR	soluble
MAEGERQPPPDSSEEAPPATQNFIIPKKEIHTVPDMGKWKRSQAYADYIGFILTLNEGVKGKKLTFEYRVSEAIEKLVALLNTLDRWIDETPPVDQPSRFGNKAYRTWYAKLDEEAENLVATVVPTHLAAAVPEVAVYLKESVGNSTRIDYGTGHEAAFAAFLCCLCKIGVLRVDDQIAIVFKVFNRYLEVMRKLQKTYRMEPAGSQGVWGLDDFQFLPFIWGSSQLIDHPYLEPRHFVDEKAVNENHKDYMFLECILFITEMKTGPFAEHSNQLWNISAVPSWSKVNQGLIRMYKAECLEKFPVIQHFKFGSLLPIHPVTSG	soluble
MAEGNTLISVDYEIFGKVQGVFFRKHTQAEGKKLGLVGWVQNTDRGTVQGQLQGPISKVRHMQEWLETRGSPKSHIDKANFNNEKVILKLDYSDFQIVG	soluble
MAEHDLTARMAGHLDCHLVLPLLEFLQERHLYPEEEILEAKIRLLRGTNMVDYAMDIHKSRYGTDDVPEDMVKRRAEVVSRLTSLGEAIDNIHQNQQIGPDQIETLYQYAKFQFDCGNYSFAAQYLHQYRALCTNIERSLSALWGKLAAEILMQNWDVALEELNRLKEIIDSKNFSSPLNQLQNRIWLMHWSIFIFYNHENGRNGIIDLFFQERYLNAIQTNAPHLLRYLATAVVVNKRRRNMLKELIKVIQQEQHSYKDPITEFLECLFVNYDFDGAQQKLIECEEVILNDPFLGKRIEEGNSITVPLRDEFLENARLFIFETYCRIHRSIDIGMLSQKLNMRYDEGELWIMNLVRNSKLDAKIDSVSGTLIMTTNHVNIHEQFIESLKNLNMRTSMLAKNIVEPAQAMQQATR	not soluble
MAEHGETQADEEEEEQVWSWGAGTDGQLGTTKLQDELLPQLLSLTSLPSISMLACGGAHVIALTSGGKVFTWGRGSSGQLGHGDILNITLPKLVSFFDDSVITQAAAGWSHSGFVSDSGCIFTCGNGSFGQLGHGDTLSLSTPAKVSHFNNDSVKMVACGMRHSLVLFAGNQVCGFGSGKRGQLGFSSDRIKSVNLPCVVSGLKDVEVVRISANGDHSAAISADGQFFSWGRGFCGGPDVHAPQSLPSPLSFREVAVGWNHALLLTVDGEVFKLGSTLNKQPEKQQLQIDSSEALFEKVPDFDGVKVMQIAAGAEHSAAVTENGEVKTWGWGEHGQLGLGNTNDQTSPELVSLGSIDLRTKEIKVYCGSGFTYAVKRKQELSPTSS	soluble
